Test: label from the status in PepcDB records

Sequence | protein production
MKRLDLVAGPNGAGKSTFVALTLAPLLPGIVFVNADEIAKQRWPDDPTSHAYQAAQVAADTRARLIDLGRPFIAETVFSHPSKLELIRTARTAGYTVVLHVLVIPEGLAVERVRHRVAAGGHDVPETKIRERHRRLAELVAQAITLADGATVYDNSRLAGPRIVAQFSGGGIIGRACWPSWTPPPLMSRWSNRPETA | failed
MKRLFLPLLGFLSLVLMCCNDNKESGTDSYDPNKPVTIDYFTPDTGRVAEKVIIIGNNFGNDKSAVTVLFTDNMEKENKAAVVGVDNTTIYCMAPRQAEGFNKITVKVNDQTVVADETFKYSVSENVSTIAGDFVQADGAGKDGSLAEATFGQMFGVACIDEQSGIVGQAWNNNSVRYISIDEDAVITIQSGPVVGKVAVSNDKTLAYGATINGANTVYVYKKSQAWVPSRLSDISSGTDVWAVALNGDNQWLYYVTANGRLGRIEVDNPTHNEILFEHNDFSGGPFAYIAYSAFEDCFYVTTDKNKILKVWVKEDGTHAYEQINQNNTGTTDGFLADEAKFQYLRGLTIDEDGNIFVCQGDNSHVIRKIAYDENMEKRYVTTVLGTSTVHGTDDGSPDIALFNGPQDISYDGNGGYWIAMRYEPALRKYSIE | failed
MKRLIVSSSVVLFMFLCSITITSAENNSVKVAFIRHHNLWIKVDGKEIQITKGEYITGPKWSYDGEWLAYVKGKKQSILELYRLKDGKKVTPFHSEASNYQWSPTENIIAFIFTGTLNTFDVEKKNADFENVSAGVGDYAWYPDGKNFLVSSEAHLLPTGWTGAQLYEVQKDAHMNPHKMKHLYALPNEHDDFLALVASGFKWSPDQKWISFLAVPTASWSADSNTLCLVRADGSRFEKVDQMLLNAQWFQWAPSKNILAYIEGSGRVALENKHLKVKELPALQQNIFTPKGYVDWDFVWKNDRVIIVSRAKEAGIETPPEKRPLPSLYEVDSTSNAQHQITKKTNKQGDYHPIFMKKSNQLIWIRSDRKKADVWLAHKDRKQEKKWIENIDVPAWYYEKWNWGNVISVKEE | failed
MKRMHNPAHPGEVLREYLGELTVTNAAAKLGVSRVALSRILNGTNGISADMALRLEDALGTSAEMWAAMQFKYDLWVASQQPRPKITRLHV | failed
MKRPHGYQITSLRADKYGGYYAANFVGNEILYFDVNNNVNALVKDGFSYLKSPYDVIEANNLLYVTLYSSDEIGVYDKVLGVKRKSIGNKGTKDGELLAPQYMAIDKRNYIYVSEWGNKRVSKFGLEGDFILHFGSRTSGYKGLLGPTGVTYLNENIYVADSLRNTIEVFDTSGNHLYSVFTSIEGIEGLSSDFVGNNVIVSSKDGVYKYSIAKKTITKILKADKMNSKISSSILDANNQMIVSDFNNAKVSVYKSDASLYDSLEHHHHHH | not failed
MKRQYYIGISLFITIIILVLDQITKFIIASSMKVGDSFEVIPNFLNITSHRNDGAAWGILSGKMSFFFIITIIILVVLIVFYIKEAKNNLLMQIAISLLFAGALGNFIDRVLHGEVVDFVDTYIFGYNFPIFNVADSSLTIGVLLIIIALLTDMKKEE | failed
MKRRLLCALLASTLAQPLTVRADLPDLGEISDASLSLSDEARIGRDALRAMREAGDVVDDPEVNAYLNDVGGRLAAAAAVPGVRFTYFCVADAGINAFAMPGGYVGINIGLMLASQSEGELAAVLGHETAHVAQRHIARMQAANSAASPLLLLGTIVAAALAAKAGSGDGAMGAVSAGMGLSISRQLAFSRDFEREADRVGMQYMSAAGFDVRNMAAFFQRLEQASRYSDNTAYAFLRTHPVTLERISEAQNRALDYPVRMRADSVDYLLVREKLRVLTLSPEEAVSHYSSALQRGLYLNEGANWYGLARAKLLQHDRAGASEALAKARAKLPDNPMLYGLEVEIARDGRDWAAAARAARNGLSAFPRSVSLQLAQLDVALDGGDRKAAQAQLRQLLDSRRDDPALYRREAKLYADKDPLRYHAALGNAFYYEQRYGAALEQYQLAGKAKGDDFYLRSMLEARLREVEKLAKEERKAARNLEHHHHHH | not failed
MKRSIAPLLVCPACLPKERPLELTATAEADGDITAGHLSCKGCRRRFPIRDGIAVLLPDPDTGPSGGQWKYEEQGTLATYLWSHFADLAGDPEAGDAYASWASALAGNAETSLDAGCAVGRLTFELGQRSGLAVGFDLSLTFIRAARQLARERQIRFSLPREGNLRDEFRLTLPDCWRTDEVEFVVADALAIPFARETFDRTASLNLIDRVSYPLAHLYEMNRVARLSGASFLLSDPFSWSTANAPEEKWLGGTESGPYSGRGMDNVKAILGGKEAIIAPPWTVAREGSVWWKIRSHRNHFELIRSEFLVAERLEHHHHHH | failed
MKRSLLACAMSCMMLTVSAHSDFDVRNVDSQFHVPEIGGGVGLIDQQKERQIGEKVFREIQKQMPVVHDPWLQEQYSQIFLRVLAQTSITQPVGLVIIKDPQINAFAVPGGLFALNTGLIANARNIDEVAGVMAHEVAHVTQRHYSRSQEAFKGQGLLALAGILVGAAVATTSNADVGSAVMLGTQAALMDRQLTYSRNQEREADRIGMQYMYAAGYNPQSMADFFETMQRSRVGSSFMPDFWMTHPLTTERMSEARLRANQLPKVETKLYDPNFQLLKWYTLAVSDPSSEKILENVVKQGNKEAQLALGAYYVGQGDFVKAQKQLDDIKSQFNENTLYCLIQTNIYLGQNELDQAYSSIVNIQRAMPESRALAYKLAEVMILQGKAGDTLQLIQPFVNRNPRDLEGWQLMQQASSIDRISPVQTVNTLRYRAEVQFWSGNEENAIKSLLHAQRLAKGNESLSARIDSRLKQMQSDYTMKI | failed
MKRVFVFQDFKSQKFWSIDVRGTDVIVNYGKLGTDGQTQVKNFSSAGEAEKAAGKLIAEKTKKGYVETLEEVAKEMKVEAKKYALSYDEAEEGVNLMDKILKDKKLPSLKQITIGCWGYEGEDCSDIADGIVENKEKFAHFEGLFWGDIDFEEQEISWIEQVDLSPVLDAMPLLNNLKIKGTNNLSIGKKPRPNLKSLEIISGGLPDSVVEDILGSDLPNLEKLVLYVGVEDYGFDGDMNVFRPLFSKDRFPNLKWLGIVDAEEQNVVVEMFLESDILPQLETMDISAGVLTDEGARLLLDHVDKIKHLKFINMKYNYLSDEMKKELQKSLPMKIDVSDSQEYDDDYSYPMITELEHHHHHH | not failed
MKRVNQNLYQLLRRIYWRLPLPEETKELLVGFARRFLRGMKKALAEPVTTASSASVSREKILQEYANQILAIPRKSGNEYVEISSSSYQRKEGDAKILAYYLPQFHPTKENDMWWGKGVTEWNNVSRAMPQYVGHYQPRLPGELGYYDLRILDNMRRQVELAQMYGIYGFCFYYYWFDGKRLLDKPLDMFLEAKTIDFPFSLCWANESWTRRFDGSCGEILVKQSETVESYIAFINSVVPYMRDSRYIRMNGKPIFTIYRPSFIPECASTITAWREHCVKAGIGDIYIIGIKEHTWDVNLIELGFDAQSEFHPGTLFKHCVDISSQINYMQDFGGIVLDYRDIVEHKKYFLYNHPKLHRAAMPMWDNSARRDNKGMIFEGASPDLYERWLTDILLEAKNREDLEDHYIFINAWNEWGEGAYLEPDKKYGYAYLNATRQAIEGVRS | failed
MKRYIYLFVSVFTLVMASCQQEETSNGKTGFLQFSVEKNTSTILVPATRAEELPIALQVVDRAGTVVKETDDWHNWTSTPLELPLGSYTINAFSKGVDVGTAGFDEPYYWGQSEVTVVPKVNQSVNIECRLANVKVTVNYSADVKKYFSKLNCSVGNSSGKLVFGKDETRSGYFAVDKLNISLALTNTDGRSFVFESEPITDVKERQHYRINYTMKANGAIGGVSVTLDPSTKEYNVNIAIPKESNPSVNVWSDFADVTLPLPDGVVTKECKYRISGTEDWNTVSNVEQADGKLVATITGLIPGTEYDFCFAINGVNGKITTATTELQKQLENGSFDEWNQNGKTWFPGTAAEASAKNSYWDTGNVGAATMSKNPSIGESNDVHTVGGKSAKLSSQFVGMFGIGKFAAGNIYIGRYMETYTSPMGARIRFGREFTSRPTQLKGWYKYTRGTSIDRGDHNVEELKNSGGDKCAIYIALTDNEGLVDDNGVKTAYEVNNNKEGSPTRYTVDLSEANKDVIAYGSITDEESKGSFDESGNVVWKQFTIDLKYRDLTRKPKYIIVVASASKYGDFFTGSESSVMLIDDFELVYGTPVTAN | failed
MKRYPRDMRGHGPTPPDAAWPGGARIAVSIVLNYEEGGENCLLHGDAQSEAFLSDIAGAQPWPGQRHWNMESIYDYGARAGFWRLHRLFTGLNIPVTVYGVATALARSPEQVAAMKSAGWEIASHGLKWVEHRDMPEEEERRQIAEAIRLHAEVVGERPRGWYTGRCSVNTVRLTAEEGGFDWISDTYDDDQPYWLETGTRDQLVIPYTLEANDMRFATAPGYIEGEQFFTYLRDSFDTLYAEGCAGQAKMFSIGLHCRLIGRPGKIAGLKRFLDYARTHERVWFPCRGDIARHWHETHPHRRRPRPSRMDRESFVAHFGGIYEHSPWIAERAFELELGPAHDSPAGLANALARIFRSATPAERLSVLKAHPDLAGKLAQARRLTASSSFEQSSAGLDALTDAERAEFATLNADYVAKHGFPFIIAVRDHDKAGILAAFETRLAHDSATEFATACRQVERIAELRLQDMLKLEHHHHHH | failed
MKSAPAVISVAFVLGLLTWLLLHGLNINSARYDSQLRALGDFTRFERGMTREVLTARAGLSRNYDALVHMVNAYDDALTRLRDTAGLDAEQTRVIDVLSARADRQESLIERFKSRNALLQNSFAYFGLFSDRLAASESRPVVTAASALAAAMLRLTLDTSDAAARQVEDRLEELAQLQAPPAETDSVHALLLHGQMLHDLLPDIDTILKTLVAESNNREQDAMLAVILKRQLAARASARKTRLLQYITSLLLLSGIIYFGMLLRKRAMALRRRAAFEHVIANISMLFINSSNDGIDADVEMALRQLAGCIGADRAYFACVVGTTMHTYRWSRDGIAFEPGWPERVLSLAPRLDGGEDGIVYIPRMNASHPHDAMLTEAGVSGWLCIMAAYGSRDGILGFDAVRGGALTYWSEVSLFRMAFDAIGNAIRRARLEGEKERLQASLQQARRMETIGTFASGIAHNFNNIVGAILGHAEMADARVAPGSRPAASLAEIRRAGERARELVEQILGFGRRGEGRRERVCLRTLVDETRSLLAASLPSHVTFEVDETADIAIVTGEPAQLQQVILNLCNNAAQAMKEPGRIELRIKVHDLVKPLSIGRSEVGPGRFTVISVADPGPGMDEATLERIFEPFFTTRPDGNGLGLATVREIVEQHGGAVAVQSRPDAGTRFDIWLPSGEPVEPQPAQHGSDPAFLGAGETVLVIDTDRRRLLRYEEILAALGYEPVGFTGLAEAIAACRAAHARFDAALVCHLPGGSSLDLAAALHDAAPALPIILAAPSTRDLAMPSLKTSGITELVHHPLASAELASALARSLVSSATSGRLRRAAGAS | failed
MKSGIGVGLKKEHLKIQINNSGVLTITGGCPVDQTKTIRFMKETKVAKDCKRNEIRAKFSKGVLYVTMPKTIPIAAGLSVSLKGATPQHQTPKTDEGMRNVANCSSEFYSKFGSLKQRLWRKTVVEGVAAVVVVAAAVLGVVKAYQYFMASPV | failed
MKSHKMMGGGISMHYITACLKIISDKDLNEIMKEFKKLEEETNKEEGCITFHAYPLEPSERKIMLWEIWENEEAVKIHFTKKHTIDVQKQELTEVEWLMKSNVND | not failed
MKSIRRGDGLNVVPFIDIMLVLLAIVLSISTFIAQGKIKVSLPNAKNAEKSQPNDQKVVVISVDEHDNIFVDDKPMNLEALSAVVKQTDPKTLIDLKSDKSSRFETFISIMDILKEHNHENFSISTQAQ | failed
MKSITQASFMKGIMFTFTIAIISYILAKFPILHTIGALAIAIIFAMIYRQVIGYPEHIRPGITFASKRLLKFAIILYGLKLNMGDILGKGWKLLLIDIIVIIFSISLTLLLNQIIKGNKDISILLGIGTGVCGAAAIAATAPILKSKEKDIAISVGIIALVGTIFALIYTAIEAIFNIPTITYGAWTGISLHEIAQVVLAAGIGGSEAMTFALLGKLGRVFLLIPLSIVLILYMRYKSHSSQVQQKIDIPYFLIGFIIMACINTFVPIPSLLMNIINVITTLCMLMAMVALGLNIVLKEVISKALKPFIVICITSICLSGVTLLVTSIMFK | failed
MKSITTDELKNKLLESKPVQIVDVRTDEETAMGYIPNAKLIPMDTIPDNLNSFNKNEIYYIVCAGGVRSAKVVEYLEANGIDAVNVEGGMHAWGDEGLEIKSI | failed
